Test results as given in publication doi:10.1101/2023.02.06.527249.

Key:
[1] = molecular target: HLA-C*05:01 (1-278) refolded with β2-microglobulin (1-99) and P2-AV (…); assay: SPR
[2] = molecular target: HLA-C*05:01 (1-278) refolded with β2-microglobulin (1-99) and P2-AW (…); assay: SPR
[3] = molecular target: HLA-C*05:01 (1-278) refolded with β2-microglobulin (1-99) and P2-IP (…); assay: SPR
[4] = molecular target: HLA-C*05:01 on cells loaded with P2-MW with p6 Asn (human | human (endogenous in 721.221)); assay: flow cytometry on cells
[5] = molecular target: HLA-C*08:02 on cells loaded with P2-MW with p6 Ile (human | human (endogenous in 721.221)); assay: flow cytometry on cells
[6] = molecular target: HLA-C*08:02 on cells loaded with P2-MW with p6 Leu (human | human (endogenous in 721.221)); assay: flow cytometry on cells
[7] = molecular target: HLA-C*08:02 on cells loaded with P2-MW with p6 Lys (human | human (endogenous in 721.221)); assay: flow cytometry on cells
[8] = molecular target: HLA-C*08:02 on cells loaded with P2-MW with p6 Pro (human | human (endogenous in 721.221)); assay: flow cytometry on cells
[9] = molecular target: HLA-C*08:02 on cells loaded with P2-MW with p6 Val (human | human (endogenous in 721.221)); assay: flow cytometry on cells
[10] = molecular target: HLA-C*16:02 on cells loaded with P9 with the Q8S substitution (…) (human | human (endogenous in 721.221)); assay: flow cytometry on cells

Row | Substance | Kd [1] [µM] | Kd [2] [µM] | Kd [3] [µM] | further results
1 | 2DS1 (3-200), recombinant, refolded (domain or fragment) | 2.6 | 1.9 | 2.3 | –
2 | 2DS4 (3-200), recombinant, refolded (domain or fragment) | – | 2 | – | –
3 | KIR2DS4*001 KIR-Ig (KIR-Fc) fusion protein (from UniProt P43632 22-245) (Fc fusion) | – | – | – | percent of the binding with p6 Gly (P2-MW) [4]: > 25%; percent of the binding with p6 Gly (P2-MW) [5]: > 50%; percent of the binding with p6 Gly (P2-MW) [6]: > 50%; percent of the binding with p6 Gly (P2-MW) [7]: > 50%; percent of the binding with p6 Gly (P2-MW) [8]: > 50%; percent of the binding with p6 Gly (P2-MW) [9]: > 50%
4 | KIR2DS1*001-Fc (from UniProt Q14954 22-245) (Fc fusion) | – | – | – | fold change of binding against unmodified P9 [10]: 5 fold
5 | 2DL1 (1-224), recombinant, refolded (from UniProt P43626 22-245) (domain or fragment) | 1 | 1.1 | 0.44 | –
